# Where two headings read alike, the source gives them in different places. *1 amine or outer side, *2 acyl side, *3 side chain or, on linkers, in order; H or OH if unused. Where no end group is shown, it is not given here. Side-chain parts run from the residue outwards. [ ]: non-standard residue; d: D form. The star is where a group is joined. γGlu = O=C(O)[C@H](CCC(=O)[*:2])N[*:1]; Stearoyl = CCCCCCCCCCCCCCCCCC(=O)*; Palmitoyl = CCCCCCCCCCCCCCCC(=O)*; d(αMeK) = C[C@@](N)(CCCCN)C(=O)O; αMeOrn = C[C@](N)(CCCN)C(=O)O; αMeK = C[C@](N)(CCCCN)C(=O)O; Aib = CC(C)(N)C(=O)O
# T1: human GIP receptor (human, UniProt P48546 22-466)
# T1 sequence (looked up): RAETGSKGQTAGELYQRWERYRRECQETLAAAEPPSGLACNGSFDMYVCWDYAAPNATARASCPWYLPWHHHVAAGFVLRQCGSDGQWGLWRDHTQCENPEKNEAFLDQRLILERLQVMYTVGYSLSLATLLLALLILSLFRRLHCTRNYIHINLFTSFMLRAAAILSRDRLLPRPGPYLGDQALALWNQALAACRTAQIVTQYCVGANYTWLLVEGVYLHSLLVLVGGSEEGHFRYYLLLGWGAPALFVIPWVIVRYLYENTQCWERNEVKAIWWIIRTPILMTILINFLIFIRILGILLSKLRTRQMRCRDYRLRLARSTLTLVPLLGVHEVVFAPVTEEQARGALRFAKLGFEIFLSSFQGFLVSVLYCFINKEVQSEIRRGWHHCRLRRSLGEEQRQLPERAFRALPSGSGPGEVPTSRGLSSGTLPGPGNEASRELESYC
# How the values were obtained:
# Assay in all cases: cell-based or functional assay
# [1] = biological target: T2, human GLP-1 receptor (human, UniProt P43220 24-463)
# [2] = biological target: T1, human GIP receptor
# [3] = biological target: human glucagon receptor (human, UniProt P47871 26-477)
# [4] = biological target: T2, human GLP-1 receptor; remark: listed apart in the source
# [5] = biological target: T1, human GIP receptor; remark: listed apart in the source
# Sequence of human glucagon receptor (P47871 26-477): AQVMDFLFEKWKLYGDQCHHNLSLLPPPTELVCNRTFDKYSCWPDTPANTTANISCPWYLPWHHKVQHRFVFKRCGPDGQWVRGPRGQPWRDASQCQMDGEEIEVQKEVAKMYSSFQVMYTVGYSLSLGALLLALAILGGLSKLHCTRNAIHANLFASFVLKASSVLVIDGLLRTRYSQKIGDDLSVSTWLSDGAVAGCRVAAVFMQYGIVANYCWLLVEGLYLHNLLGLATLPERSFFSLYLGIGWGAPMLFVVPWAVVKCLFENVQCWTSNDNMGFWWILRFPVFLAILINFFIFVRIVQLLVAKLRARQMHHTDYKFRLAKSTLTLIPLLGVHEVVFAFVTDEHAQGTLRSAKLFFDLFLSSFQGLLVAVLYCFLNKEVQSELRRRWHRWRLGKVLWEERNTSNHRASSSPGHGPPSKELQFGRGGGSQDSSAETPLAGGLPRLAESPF
Binder,EC50 hGLP-1 R [pM] (cAMP formation) [1],EC50 hGIP R [pM] (cAMP formation) [2],EC50 hGLUC R [pM] (cAMP formation) [3],EC50 hGLP-1 R [pM] (cAMP formation) [4],EC50 hGIPR [pM] (cAMP formation) [5]
Y[Aib]QGTFTSDLSIQK([γGlu-Stearoyl])DEQRA[d(αMeK)]EFIEWLKSGGPSSGAPPPS-NH2 (N-terminus assumed; SMILES CCCCCCCCCCCCCCCCCC(=O)N[C@@H](CCC(=O)NCCCC[C@H](NC(=O)[C@H](CCC(N)=O)NC(=O)[C@@H](NC(=O)[C@H](CO)NC(=O)[C@H](CC(C)C)NC(=O)[C@H](CC(=O)O)NC(=O)[C@H](CO)NC(=O)[C@@H](NC(=O)[C@H](Cc1ccccc1)NC(=O)[C@@H](NC(=O)CNC(=O)[C@H](CCC(N)=O)NC(=O)C(C)(C)NC(=O)[C@@H](N)Cc1ccc(O)cc1)[C@@H](C)O)[C@@H](C)O)[C@@H](C)CC)C(=O)N[C@@H](CC(=O)O)C(=O)N[C@@H](CCC(=O)O)C(=O)N[C@@H](CCC(N)=O)C(=O)N[C@@H](CCCNC(=N)N)C(=O)N[C@@H](C)C(=O)N[C@](C)(CCCCN)C(=O)N[C@@H](CCC(=O)O)C(=O)N[C@@H](Cc1ccccc1)C(=O)N[C@H](C(=O)N[C@@H](CCC(=O)O)C(=O)N[C@@H](Cc1c[nH]c2ccccc12)C(=O)N[C@@H](CC(C)C)C(=O)N[C@@H](CCCCN)C(=O)N[C@@H](CO)C(=O)NCC(=O)NCC(=O)N1CCC[C@H]1C(=O)N[C@@H](CO)C(=O)N[C@@H](CO)C(=O)NCC(=O)N[C@@H](C)C(=O)N1CCC[C@H]1C(=O)N1CCC[C@H]1C(=O)N1CCC[C@H]1C(=O)N[C@@H](CO)C(N)=O)[C@@H](C)CC)C(=O)O) [SEQ ID NO: 13],13.6,33.1,202,–,–
Y[Aib]EGTFTSDLSIQK([γGlu-Palmitoyl])EERAA[αMeK]EFIEWLKNTGPSSGAPPPS-NH2 (N-terminus assumed; SMILES CCCCCCCCCCCCCCCC(=O)N[C@@H](CCC(=O)NCCCC[C@H](NC(=O)[C@H](CCC(N)=O)NC(=O)[C@@H](NC(=O)[C@H](CO)NC(=O)[C@H](CC(C)C)NC(=O)[C@H](CC(=O)O)NC(=O)[C@H](CO)NC(=O)[C@@H](NC(=O)[C@H](Cc1ccccc1)NC(=O)[C@@H](NC(=O)CNC(=O)[C@H](CCC(=O)O)NC(=O)C(C)(C)NC(=O)[C@@H](N)Cc1ccc(O)cc1)[C@@H](C)O)[C@@H](C)O)[C@@H](C)CC)C(=O)N[C@@H](CCC(=O)O)C(=O)N[C@@H](CCC(=O)O)C(=O)N[C@@H](CCCNC(=N)N)C(=O)N[C@@H](C)C(=O)N[C@@H](C)C(=O)N[C@@](C)(CCCCN)C(=O)N[C@@H](CCC(=O)O)C(=O)N[C@@H](Cc1ccccc1)C(=O)N[C@H](C(=O)N[C@@H](CCC(=O)O)C(=O)N[C@@H](Cc1c[nH]c2ccccc12)C(=O)N[C@@H](CC(C)C)C(=O)N[C@@H](CCCCN)C(=O)N[C@@H](CC(N)=O)C(=O)N[C@H](C(=O)NCC(=O)N1CCC[C@H]1C(=O)N[C@@H](CO)C(=O)N[C@@H](CO)C(=O)NCC(=O)N[C@@H](C)C(=O)N1CCC[C@H]1C(=O)N1CCC[C@H]1C(=O)N1CCC[C@H]1C(=O)N[C@@H](CO)C(N)=O)[C@@H](C)O)[C@@H](C)CC)C(=O)O) [SEQ ID NO: 11],5.1,7,3160,5.1,7
Y[Aib]EGTFTSDLSIQK([γGlu-Palmitoyl])EERAA[αMeK]EFIEWLKAGGPSSGAPPPS-NH2 (N-terminus assumed; SMILES CCCCCCCCCCCCCCCC(=O)N[C@@H](CCC(=O)NCCCC[C@H](NC(=O)[C@H](CCC(N)=O)NC(=O)[C@@H](NC(=O)[C@H](CO)NC(=O)[C@H](CC(C)C)NC(=O)[C@H](CC(=O)O)NC(=O)[C@H](CO)NC(=O)[C@@H](NC(=O)[C@H](Cc1ccccc1)NC(=O)[C@@H](NC(=O)CNC(=O)[C@H](CCC(=O)O)NC(=O)C(C)(C)NC(=O)[C@@H](N)Cc1ccc(O)cc1)[C@@H](C)O)[C@@H](C)O)[C@@H](C)CC)C(=O)N[C@@H](CCC(=O)O)C(=O)N[C@@H](CCC(=O)O)C(=O)N[C@@H](CCCNC(=N)N)C(=O)N[C@@H](C)C(=O)N[C@@H](C)C(=O)N[C@@](C)(CCCCN)C(=O)N[C@@H](CCC(=O)O)C(=O)N[C@@H](Cc1ccccc1)C(=O)N[C@H](C(=O)N[C@@H](CCC(=O)O)C(=O)N[C@@H](Cc1c[nH]c2ccccc12)C(=O)N[C@@H](CC(C)C)C(=O)N[C@@H](CCCCN)C(=O)N[C@@H](C)C(=O)NCC(=O)NCC(=O)N1CCC[C@H]1C(=O)N[C@@H](CO)C(=O)N[C@@H](CO)C(=O)NCC(=O)N[C@@H](C)C(=O)N1CCC[C@H]1C(=O)N1CCC[C@H]1C(=O)N1CCC[C@H]1C(=O)N[C@@H](CO)C(N)=O)[C@@H](C)CC)C(=O)O) [SEQ ID NO: 16],4.1,2.5,19800,–,–
Y[Aib]EGTFTSDLSIQK([γGlu-Stearoyl])DERAA[αMeK]EFIEWLKNTGPSSGAPPPS-NH2 (N-terminus assumed; SMILES CCCCCCCCCCCCCCCCCC(=O)N[C@@H](CCC(=O)NCCCC[C@H](NC(=O)[C@H](CCC(N)=O)NC(=O)[C@@H](NC(=O)[C@H](CO)NC(=O)[C@H](CC(C)C)NC(=O)[C@H](CC(=O)O)NC(=O)[C@H](CO)NC(=O)[C@@H](NC(=O)[C@H](Cc1ccccc1)NC(=O)[C@@H](NC(=O)CNC(=O)[C@H](CCC(=O)O)NC(=O)C(C)(C)NC(=O)[C@@H](N)Cc1ccc(O)cc1)[C@@H](C)O)[C@@H](C)O)[C@@H](C)CC)C(=O)N[C@@H](CC(=O)O)C(=O)N[C@@H](CCC(=O)O)C(=O)N[C@@H](CCCNC(=N)N)C(=O)N[C@@H](C)C(=O)N[C@@H](C)C(=O)N[C@@](C)(CCCCN)C(=O)N[C@@H](CCC(=O)O)C(=O)N[C@@H](Cc1ccccc1)C(=O)N[C@H](C(=O)N[C@@H](CCC(=O)O)C(=O)N[C@@H](Cc1c[nH]c2ccccc12)C(=O)N[C@@H](CC(C)C)C(=O)N[C@@H](CCCCN)C(=O)N[C@@H](CC(N)=O)C(=O)N[C@H](C(=O)NCC(=O)N1CCC[C@H]1C(=O)N[C@@H](CO)C(=O)N[C@@H](CO)C(=O)NCC(=O)N[C@@H](C)C(=O)N1CCC[C@H]1C(=O)N1CCC[C@H]1C(=O)N1CCC[C@H]1C(=O)N[C@@H](CO)C(N)=O)[C@@H](C)O)[C@@H](C)CC)C(=O)O) [SEQ ID NO: 14],7.2,4.5,4730,–,–
Y[Aib]EGTFTSDLSIQLEERAA[αMeK]EFIEWLKNTGPSSGAPPPS-NH2 (N-terminus assumed; SMILES CC[C@H](C)[C@H](NC(=O)[C@H](CO)NC(=O)[C@H](CC(C)C)NC(=O)[C@H](CC(=O)O)NC(=O)[C@H](CO)NC(=O)[C@@H](NC(=O)[C@H](Cc1ccccc1)NC(=O)[C@@H](NC(=O)CNC(=O)[C@H](CCC(=O)O)NC(=O)C(C)(C)NC(=O)[C@@H](N)Cc1ccc(O)cc1)[C@@H](C)O)[C@@H](C)O)C(=O)N[C@@H](CCC(N)=O)C(=O)N[C@@H](CC(C)C)C(=O)N[C@@H](CCC(=O)O)C(=O)N[C@@H](CCC(=O)O)C(=O)N[C@@H](CCCNC(=N)N)C(=O)N[C@@H](C)C(=O)N[C@@H](C)C(=O)N[C@@](C)(CCCCN)C(=O)N[C@@H](CCC(=O)O)C(=O)N[C@@H](Cc1ccccc1)C(=O)N[C@H](C(=O)N[C@@H](CCC(=O)O)C(=O)N[C@@H](Cc1c[nH]c2ccccc12)C(=O)N[C@@H](CC(C)C)C(=O)N[C@@H](CCCCN)C(=O)N[C@@H](CC(N)=O)C(=O)N[C@H](C(=O)NCC(=O)N1CCC[C@H]1C(=O)N[C@@H](CO)C(=O)N[C@@H](CO)C(=O)NCC(=O)N[C@@H](C)C(=O)N1CCC[C@H]1C(=O)N1CCC[C@H]1C(=O)N1CCC[C@H]1C(=O)N[C@@H](CO)C(N)=O)[C@@H](C)O)[C@@H](C)CC) [SEQ ID NO: 17],–,–,–,5.9,163
Y[Aib]QGTFTSDLSIQK([γGlu-Stearoyl])DEQRA[αMeOrn]EFIEWLKAGGPSSGAPPPS-NH2 (N-terminus assumed; SMILES CCCCCCCCCCCCCCCCCC(=O)N[C@@H](CCC(=O)NCCCC[C@H](NC(=O)[C@H](CCC(N)=O)NC(=O)[C@@H](NC(=O)[C@H](CO)NC(=O)[C@H](CC(C)C)NC(=O)[C@H](CC(=O)O)NC(=O)[C@H](CO)NC(=O)[C@@H](NC(=O)[C@H](Cc1ccccc1)NC(=O)[C@@H](NC(=O)CNC(=O)[C@H](CCC(N)=O)NC(=O)C(C)(C)NC(=O)[C@@H](N)Cc1ccc(O)cc1)[C@@H](C)O)[C@@H](C)O)[C@@H](C)CC)C(=O)N[C@@H](CC(=O)O)C(=O)N[C@@H](CCC(=O)O)C(=O)N[C@@H](CCC(N)=O)C(=O)N[C@@H](CCCNC(=N)N)C(=O)N[C@@H](C)C(=O)N[C@@](C)(CCCN)C(=O)N[C@@H](CCC(=O)O)C(=O)N[C@@H](Cc1ccccc1)C(=O)N[C@H](C(=O)N[C@@H](CCC(=O)O)C(=O)N[C@@H](Cc1c[nH]c2ccccc12)C(=O)N[C@@H](CC(C)C)C(=O)N[C@@H](CCCCN)C(=O)N[C@@H](C)C(=O)NCC(=O)NCC(=O)N1CCC[C@H]1C(=O)N[C@@H](CO)C(=O)N[C@@H](CO)C(=O)NCC(=O)N[C@@H](C)C(=O)N1CCC[C@H]1C(=O)N1CCC[C@H]1C(=O)N1CCC[C@H]1C(=O)N[C@@H](CO)C(N)=O)[C@@H](C)CC)C(=O)O) [SEQ ID NO: 15],16.1,8.9,4,–,–
